# According to the nanobody polyreactivity screen of Harvey et al. (2022):
# Assay: yeast display, Sf9 membrane polyspecificity reagent, FACS + sequencing; frameworks hold sequencing errors
# Summary of the method: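 Sorting gates, low and high (top ~1%), were placed on anti-HA fluorescence to track expression and on streptavidin fluorescence to track reagent binding. A clone's polyreactivity label is taken from the gate it came out of. The reagent was 10% biotinylated, detergent-solubilized Sf9 membrane, applied for 1 hour at 4 °C to galactose-induced yeast display cells.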
row,Sequence,polyreactivity (PSR sort gate)
1,QVQLVESGGGLVQAGGSLRLSCAASGRTFYGYAMGWSRQAPGKERELVAAISWTGGRTYYADSVKGRFTISRDNAKNTVFLQMNSLKPEDTAVYYCNARRRGDSGDGYIYGYWGQGTQVTVSS,high polyreactivity
2,QVQLVESGGGLVQAGGSLRLSCAASGRTFYGYAMGWYRQAPGKERELVAAISRRGGSTNYADSVKGRFTISRDNAKNSVYLQMNSLKPEDSAVYYCNANYYRTHYDYWGQGTQVTVSS,high polyreactivity
3,QVQLVESGGGLVQAGGSLRLSCAASGRTFYGYAMGWYRQAPGKERELVAAITRSGGSTYYADSVKGRFTISRDNAKNTVYLQMNSLKPEDTAVYYCAAGGQARHDNWGQGTQVTVSS,low polyreactivity
4,QVQLVESGGGLVQAGGSLRLSCAASGRTFYGYAMGWYRQAPGKERELVASIRQSAGRTYYADSVKGRFTISRDNAKNTVYLQMNSLKPEDTAVYYCAASIFLRSFYQQGNYWGQGTQVTVSS,high polyreactivity
5,QVQLVESGGGLVQAGGSLRLSCAASGRTFYGYTMGWYRQAPGKERELVAAIRTSGGSTYADSVKGRFTISRDNAKNTVYLQMNSLKPEDTAVYYCAAPRVVYYGTAPAYRYDYWGQGTQVTVSS,high polyreactivity
6,QVQLVESGGGLVQAGGSLRLSCAASGRTFYHYAMGWYRQAPGKERELVATITSSGGNTYYADSVKGRFTISRDNSKNTVYLQMNSLKPEDTEVYYCAADWFVYQYSFGSSEYYYWGQGTQVTVSS,low polyreactivity
7,QVQLVESGGGLVQAGGSLRLSCAASGRTFYIYAMGWYRQAPGKERELVAAITWSGGSSTYYADSVKGRFTISRDNAKNTVYLQMNSLKPEDTAVYYCAAETHYYWYEQYDYWGQGTQVTVSS,high polyreactivity
8,QVQLVESGGGLVQAGGSLRLSCAASGRTFYIYTMGWYRQAPGKERELVAAISGRGGRTYYADSVKGSFTISRDNAKNTVYLQMNSLKPEDTAVYYCARGGRVRYDYWGQGTQVTVSS,low polyreactivity
9,QVQLVESGGGLVQAGGSLRLSCAASGRTFYKNAMGWYRQAPGKERELVAAISQRGGGTYYADSVKGRFTISRDNAKNTVYLQMNSLKPEDTAVYYCNAPLVFIHGSDYWGQGTQVTVSS,high polyreactivity
10,QVQLVESGGGLVQAGGSLRLSCAASGRTFYKNAMGWYRQAPGKERELVAAISYGGGSTYYADSVKGRFTISRDNAKNTVYLQMISLKPEDTAVYYCATQLPFRKPWHDYWGQGTQVTVSS,high polyreactivity
11,QVQLVESGGGLVQAGGSLRLSCAASGRTFYKNAMGWYRQAPGKERELVARISRGGSTNYADSVKGRFTISRDNAKNTVYLQMYSVKPEESAVYYCATEYGTHGKTYDYWGQGSQVTVSS,high polyreactivity
12,QVQLVESGGGLVQAGGSLRLSCAASGRTFYKNTMGWYRQAPGKERELVATISQRGGSTYYADSVKGRFTISRDNAKNTVYLQMNSLKPEDTAVYYCNARRTSYTSQGYDYWGQGTQVTVSS,high polyreactivity
13,QVQLVESGGGLVQAGGSLRLSCAASGRTFYKYAMGWYRQAPGKERELVAAISSRGGRTYYADSVKGRFTISRDNATNTVYLQMNSLKPEDTAVYYCAAKGRPDGKYDYWGQGTQVTVSS,high polyreactivity
14,QVQLVESGGGLVQAGGSLRLSCAASGRTFYKYGMGWYRQAPGKERELVARINSNGGSTYYADSVKGRFTISRDNAKNTVYLQMNSLKPADTAVYYCARSYVRSYGYYYWGQGPQVTVSS,low polyreactivity
15,QVQLVESGGGLVQAGGSLRLSCAASGRTFYKYGMGWYRQAPGKERELVASISSGGNTYYADSVKGRFTISRDNAKNTVYLQMNSLKPEDTAVYYCNAGYWAKFDYWGQGTQVTVSS,high polyreactivity
16,QVQLVESGGGLVQAGGSLRLSCAASGRTFYKYGMVLYRKAPGKERELVAAIRWSGGSTYYADSVKGRFTISRDNAKYTVYFQMNSLKPEDTAVYYCATRSGFGYGYWGQGTQVNVSS,high polyreactivity
17,QVQLVESGGGLVQAGGSLRLSCAASGRTFYLYAMGWYRPAPGKERELVAAITSGGSTNYADSVKGRFTISRDNAKNTVYLQMNSLKPEDTAVYYCNAYKRGYLYRYNYWGQGTQVTVSS,high polyreactivity
18,QVQLVESGGGLVQAGGSLRLSCAASGRTFYLYAMGWYRPAPGKERELVAAITWSGGSTYYADSVKGRFTISRYNAKNTVFLQMNSLKPEDTAVYYCAAGLYLFQIWFGNEYDYWGQGTQVTVSS,high polyreactivity
19,QVQLVESGGGLVQAGGSLRLSCAASGRTFYLYAMGWYRQAPGKERELVAAITRRGGSTYYADSVKGRFTISRDNAKNTVYLQMNSLKPEDTAVYYCAADRPGTGYSDYDYWGQGTQVTVSS,high polyreactivity
20,QVQLVESGGGLVQAGGSLRLSCAASGRTFYLYAMGWYRQAPGKVRELVAAITRRGGSPYYADSVKGRFTISRDNAKNTVYLQMNSLKPEDTAVSYCAADRPGTGYSDYDYWGQGTQVTVSS,high polyreactivity
21,QVQLVESGGGLVQAGGSLRLSCAASGRTFYLYARGWYRQAPGKERELVAAITRSGGSTYYADSVKGRFTISRDNAKNTVYLQMNSLKPEDTAVYYCAAYSYYGAGDRAYDYWGQGTQVTVSS,high polyreactivity

row,Sequence,polyreactivity (PSR sort gate)
1,QVQLVESGGGLVQAGGSLRLSCAASGRTFYLYTMGWYRQAPGKERELVAAITRGGNTYYADSVKGRFTISRDNAKNTVYLQMNSLKPEDTAVYYCAAADYTTPVPYGRKGFDYWGQGTQVTVSS,low polyreactivity
2,QVQLVESGGGLVQAGGSLRLSCAASGRTFYNNAMGWYRPAPGKERELVAAISQRTGRTYYADSVKGRFTISRDNAKNTVYLQMNSLKPEDTAVYYCNKVAYYSRRMDYWGQGTQVTVSS,high polyreactivity
3,QVQLVESGGGLVQAGGSLRLSCAASGRTFYNYAMGWYRQAPGKERELVAAIRGSGGSTYYADSVKGRFTISRDNAKNTVYLQMNSLKPEETAVYYCNAVSQSSEYDYWGHGTQVTVSS,high polyreactivity
4,QVQLVESGGGLVQAGGSLRLSCAASGRTFYPNTMGWYRQAPGKERELVAAIRSSGGSTYYADSVKGRFTISRDNAKKTVYLQMNSLKPEDTAVYYCAAKGRSSYFYWFDYWGQGTQVTVSS,high polyreactivity
5,QVQLVESGGGLVQAGGSLRLSCAASGRTFYPYAMGWYRQAPGKEREFVAVINRSVGSPYYADSVNGRFTISRDNAKNTVYLQMNSLKPEDTAVYYCAAREPLSYYVGGDYWGQGTQVTVSS,low polyreactivity
6,QVQLVESGGGLVQAGGSLRLSCAASGRTFYPYAMGWYRQAPGKERELVAAINWRDGSTYYADSVKGRFTISRDNAKNTVYLQMNSLKPEDTAVYYCAADYYWWQYDYWGQGTQVTVSS,high polyreactivity
7,QVQLVESGGGLVQAGGSLRLSCAASGRTFYQYAMGWYRQARGKERELVAAISRRGGSTYYADSVKGRFTISRDNAKNTVYLQMNSLKPEDTAVYYCAARVRGKYDYWGQGTQVTVSS,high polyreactivity
8,QVQLVESGGGLVQAGGSLRLSCAASGRTFYRNAMGWSRQAPGKEREFVAVISVSGGSTYYADSVKGRFTISRDNAKNTVYLQMNSLKPEDTAVYYCAKRGPVRKTAYDYWGQGTQVTVSS,low polyreactivity
9,QVQLVESGGGLVQAGGSLRLSCAASGRTFYRNAMGWYRQAPGKERELVAAITRGGRTYYADSVKGRFTISRDNAKNTVYLQMNSLKPEDTAVYYCNAVSYSSTLASKIPDDYWGQGTQVTVSS,high polyreactivity
10,QVQLVESGGGLVQAGGSLRLSCAASGRTFYRNAMGWYRQAPGKERELVAAITWSGVSTYYADSVKGRFTISRDNAKNTVYLQMNSLKPEDTAVYYCARGRVLRNGHYFQLRNYDYWGQGTQVTVSS,high polyreactivity
11,QVQLVESGGGLVQAGGSLRLSCAASGRTFYRNAMGWYRQAPGKERELVAGITRGGRTYYADSVKGRFTISRDNAKNTVYLQMNSLKPEDTAVYYCAKGRSWQIYYKGGIKGGYWGQGTQVTVSS,low polyreactivity
12,QVQLVESGGGLVQAGGSLRLSCAASGRTFYRNDMGWYRQEPGKEREFVAAITSSGGTTYADSVKGRFTISRDNAKNTVYLQMNSLKPEDTAVYYCNTVLYPYWQWDYEFDYWGQGTQVTVSS,low polyreactivity
13,QVQLVESGGGLVQAGGSLRLSCAASGRTFYRNDRGWYRQAPGKERELVAAITSSGGTTYADSVKGRFTISRDNAKNTVYLQMNSLKPEDTAVYYCNTVLYAYWQWDYEFDYWGQGTQVTVSS,low polyreactivity
14,QVQLVESGGGLVQAGGSLRLSCAASGRTFYRSVMGWYRQAPGKERELVAAITPGGSTYADSVKGRFTISRDNAKKTVSLQMNSLKPEDTAVNYCNKRKASSSGYNYWGQVTQVTVSS,low polyreactivity
15,QVQLVESGGGLVQAGGSLRLSCAASGRTFYRYAMGWSRQAPGKERELVATISGSGGSTYYADSVKGRFTISRDNAKNTVYLQMNSLKPEDTAVYYCNAVWRFPIGRTAPRYDYWGQGTQVTVSS,high polyreactivity
16,QVQLVESGGGLVQAGGSLRLSCAASGRTFYRYAMGWYRQAPGKEREFVAAISNGGSNTRYADSVKGRFTISRDNATNTVYLQMNSLKPEDTAVYYCAASAYQHYNWGQGTQVTVSS,high polyreactivity
17,QVQLVESGGGLVQAGGSLRLSCAASGRTFYRYAMGWYRQAPGKERELVAAISSNGGSTYYADSVKGRFTISRDNAKNTVYLQMNSLKPEDTAVYYCYYYYSRLFDYWGQGTQVTVSS,high polyreactivity
18,QVQLVESGGGLVQAGGSLRLSCAASGRTFYRYAMGWYRQAPGKERELVAAITGGGGSTYYADSVKGRFTISRDNAKNTVYLQMNSLKPEDTAVYYCNRRSYGFISYNFWGQGTQVTVSS,high polyreactivity
19,QVQLVESGGGLVQAGGSLRLSCAASGRTFYRYAMGWYRQAPGKERELVASINRGGSTNYADSVKGRFTISRDNAKNTVFLQMNCLKPEDTAVYYCACYCYCYWGQGTQVTVSS,low polyreactivity
20,QVQLVESGGGLVQAGGSLRLSCAASGRTFYRYAMGWYRQAPGKERELVATISRSGGSTYYADSVKGRFTISRDNAKYTVYLQMKSLNPEDTAVYYCNAEGYPWGFYTYDYWGQGTQVTVSS,low polyreactivity
